Key:
[1] = target: T1, PA-mST6Gal II (mouse ST6Gal II) (Mus musculus, UniProt Q76K27, R48S); experiment: Sialyltransferase activity of PA-mST6Gal II toward acceptor substrates; format: biochemical; conditions: PA-mST6Gal II; incorporation with Galβ1,4GlcNAc taken as 100; 0.5 mg/ml glycolipids, 1 mg/ml glycoproteins and oligosaccharides
T1 construct: amino acids 31-524 in the case of mouse ST6Gal II; signal peptide of mouse immunoglobulin IgM (N); made in house; host or cells: COS-7 cells, transient expression of pcDSA-mST6Gal II; protein recovered from medium on IgG-Sepharose
T1 sequence (Q76K27 31-524 R48S): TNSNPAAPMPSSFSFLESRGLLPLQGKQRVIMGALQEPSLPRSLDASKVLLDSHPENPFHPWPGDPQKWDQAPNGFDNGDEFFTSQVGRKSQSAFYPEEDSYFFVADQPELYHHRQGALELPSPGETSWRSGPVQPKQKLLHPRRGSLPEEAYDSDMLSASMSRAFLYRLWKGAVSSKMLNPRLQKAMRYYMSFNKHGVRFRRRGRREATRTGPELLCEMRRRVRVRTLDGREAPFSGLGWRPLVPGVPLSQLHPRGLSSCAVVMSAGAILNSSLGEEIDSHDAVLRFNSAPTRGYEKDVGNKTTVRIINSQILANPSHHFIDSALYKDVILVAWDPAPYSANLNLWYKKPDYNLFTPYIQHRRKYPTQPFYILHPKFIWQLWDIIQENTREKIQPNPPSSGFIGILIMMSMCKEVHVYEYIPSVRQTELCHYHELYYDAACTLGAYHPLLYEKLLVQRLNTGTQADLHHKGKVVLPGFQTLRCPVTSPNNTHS
Procedure: (§1) Using each expression vector and lipofectamine (Invitrogen), transient expression was carried out in COS-7 cells (Kojima, N. et al. (1995) FEBS Lett. 360, 1-4). The proteins of the present invention secreted from the cells into which each expression vector had been introduced were named as PA-hST6Gal II (human) and PA-mST6Gal II (mouse). PA-hST6Gal II and PA-mST6Gal II were adsorbed to IgG-Sepharose (Amersham Pharmacia Biotech), and were then recovered from medium. Sialyltransferase activity was measured as follows according to the method of Lee et al. (Lee, Y.-C. et al. (1999) J Biol. Chem. 274, 11958-11967). A reaction mixture (10 μl) containing 50 mM MES buffer (pH 6.0), 1 mM MgCl2, 1 mM CaCl2, 0.5% Triton CF-54, 100 μM CMP-[^14C]-NeuAc, a substrate sugar chain (which was added at 0.5 mg/ml in the case of glycolipids, and at 1 mg/ml in the case of glycoproteins or oligosaccharides), and a PA-hST6Gal II or PA-mST6Gal II suspension, was incubated at 37° C. for 3 to 20 hours. Thereafter, in the case of glycolipids, the reaction product was purified with a C-18 column (Sep-Pak Vac 100 mg; Waters) and the purified product was used as a sample. In the case of oligosaccharides or glycoproteins, the reaction product was directly used as a sample. Thus, the obtained sample was subjected to analysis. In the case of oligosaccharides or glycolipids, the sample was spotted on a silica gel 60 HPTLC plate (Merck), and it was then developed with a developing solvent consisting of 1-propanol:ammonia water:water=6:1:2.5 (for oligosaccharides), or a developing solvent consisting of chloroform:methanol: 0.02% CaCl2=55:45:10 (for glycolipids). In the case of glycoproteins, analysis was carried out by SDS-polyacrylamide gel electrophoresis. The obtained radioactivities were visualized with a BAS2000 radio image analyzer (Fuji Film) and then quantified.

[2] = target: T2, PA-hST6Gal II (human ST6Gal II) (Homo sapiens, UniProt Q96JF0); experiment: Sialyltransferase activity of PA-hST6Gal II toward acceptor substrates; format: biochemical; conditions: PA-hST6Gal II; incorporation with Galβ1,4GlcNAc taken as 100; 0.5 mg/ml glycolipids, 1 mg/ml glycoproteins and oligosaccharides
T2 construct: amino acids 33-529 in the case of human ST6Gal II; signal peptide of mouse immunoglobulin IgM (N); made in house; host or cells: COS-7 cells, transient expression of pcDSA-hST6Gal II; protein recovered from medium on IgG-Sepharose
T2 sequence (Q96JF0 33-529): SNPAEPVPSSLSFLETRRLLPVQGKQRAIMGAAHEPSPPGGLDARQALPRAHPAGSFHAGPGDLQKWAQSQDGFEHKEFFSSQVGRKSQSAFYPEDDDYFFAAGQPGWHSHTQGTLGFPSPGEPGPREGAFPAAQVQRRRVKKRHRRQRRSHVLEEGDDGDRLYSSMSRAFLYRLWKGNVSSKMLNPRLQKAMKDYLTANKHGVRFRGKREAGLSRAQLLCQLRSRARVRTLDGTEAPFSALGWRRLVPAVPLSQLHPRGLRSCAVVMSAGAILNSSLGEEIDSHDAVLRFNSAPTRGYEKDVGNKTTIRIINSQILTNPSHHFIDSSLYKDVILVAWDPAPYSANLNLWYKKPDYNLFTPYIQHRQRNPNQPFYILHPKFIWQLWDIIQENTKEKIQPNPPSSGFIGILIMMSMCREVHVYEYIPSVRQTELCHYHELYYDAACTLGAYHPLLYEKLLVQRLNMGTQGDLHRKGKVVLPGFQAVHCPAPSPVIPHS
Procedure: as §1

Molecule | Relative rate (%) Mouse ST6Gal II [1] [%] | Relative rate (%) Human ST6Gal II [2] [%]
Asialo- α1-Acid glycoprotein: desialylated α1-acid glycoprotein prepared at 80° C. for 1 hour in 0.02 N HCl | 12.3 | 1.2
Asialofetuin: asialo glycoprotein acceptor substrate purchased from Sigma | 21.0 | 3.9
Fetuin: glycoprotein acceptor substrate containing both O-glycans and N-glycans, purchased from Sigma | 0 | 0
Galβ1,3GalNAcβ1,4(NeuAcα2,3)Galβ1,4Glcβ1-Cer [GM1a] | 0 | 0
Galβ1,4Glcβ1-Cer [Lactosylceramide] | 0 | 0
NeuAcα2,3Galβ1,4Glcβ1-Cer [GM3] | 0 | 0
α1-Acid glycoprotein: glycoprotein acceptor substrate purchased from Sigma | 0.75 | 1.2
Ovomucoid: glycoprotein acceptor substrate which contains only N-glycans (protein, UniProt P01005 25-210, looked up) Ovomucoid: AEVDCSRFPNATDKEGKDVLVCNKDLRPICGTDGVTYTNDCLLCAYSIEFGTNISKEHDGECKETVPMNCSSYANTTSEDGKVMVLCNRAFNPVCGTDGVTYDNECLLCAHKVEQGASVDKRHDGGCRKELAAVSVDCSEYPKPDCTAEDRPLCGSDNKTYGNKCNFCNAVVESNGTLTLSHFGKC | 0 | 0
Asialoovomucoid: desialylated ovomucoid prepared at 80° C. for 1 hour in 0.02 N HCl (protein, UniProt P01005 25-210, looked up, desialylated, desialylated ovomucoid prepared at 80° C. for 1 hour in 0.02 N HCl) Ovomucoid: AEVDCSRFPNATDKEGKDVLVCNKDLRPICGTDGVTYTNDCLLCAYSIEFGTNISKEHDGECKETVPMNCSSYANTTSEDGKVMVLCNRAFNPVCGTDGVTYDNECLLCAHKVEQGASVDKRHDGGCRKELAAVSVDCSEYPKPDCTAEDRPLCGSDNKTYGNKCNFCNAVVESNGTLTLSHFGKC | 0 | 0
